Experimental findings from article PMC4344121 are described below.

This experiment has as its target T1, N-terminally truncated human SIRT4 (33-314) (human) (UniProt Q9Y6E7).
T1 sequence: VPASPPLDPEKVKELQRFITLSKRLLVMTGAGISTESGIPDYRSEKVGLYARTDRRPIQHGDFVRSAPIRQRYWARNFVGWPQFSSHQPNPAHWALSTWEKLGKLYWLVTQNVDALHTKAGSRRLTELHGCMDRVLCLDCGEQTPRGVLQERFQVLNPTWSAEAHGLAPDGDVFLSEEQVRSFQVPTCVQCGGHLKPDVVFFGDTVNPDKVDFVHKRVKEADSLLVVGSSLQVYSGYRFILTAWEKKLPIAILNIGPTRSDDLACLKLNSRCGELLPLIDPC

Where no end group is shown, it is not given here. The star is where a group is joined. lipoyl = O=C(CCCC[C@@H]1CCSS1)*

Take EIETDK(lipoyl)ATIGW [DLAT K259 Lipoyl peptide]: the Km of delipoylation, steady-state kinetics (HPLC-based assay, SIRT4 5 μM) amounted to 239 µM.
